Test results as given in PMC11401227, “The structure of DNA methyltransferase DNMT3C reveals an activity-tuning mechanism for DNA methylation” (The Journal of Biological Chemistry, 2024).

Molecular target: the molecule itself
Experiment: crystal structure; DNMT3C MTase domain-hDNMT3L C-terminal domain covalently bound to a 25-mer ZpG/CpG DNA, with SAH; 3.2 Å; crystals grown at 4 °C

B1: mouse DNMT3C MTase domain (residues 456–740) (domain or fragment, UniProt P0DOY1 456-740, looked up)
chain: AAKRRPIRVLSLFDGIATGYLVLKELGIKVEKYIASEVCAESIAVGTVKHEGQIKYVDDIRNITKEHIDEWGPFDLVIGGSPCNDLSCVNPVRKGLFEGTGRLFFEFYRLLNYSCPEEEDDRPFFWMFENVVAMEVGDKRDISRFLECNPVMIDAIKVSAAHRARYFWGNLPGMNRPVMASKNDKLELQDCLEFSRTAKLKKVQTITTKSNSIRQGKNQLFPVVMNGKDDVLWCTELERIFGFPEHYTDVSNMGRGARQKLLGRSWSVPVIRHLFAPLKDHFACE
notes: DNA methyltransferase DNMT3C, mouse, MTase domain, residues 456-740; synthetic DNA fragment; The His6-SUMO tag was still on the chain in the Ni-NTA co-purification step and was removed by ULP1 afterwards; also called DNMT3C methyltransferase domain; WT DNMT3C; source: E. coli BL21 (DE3) RIL, co-expressed with DNMT3L, purified (Ni-NTA, Heparin, SEC); not shown: His6-SUMO, N-terminal, cleaved
B1: binds.
